Substitutions are numbered along the chain they refer to. In names and notes the source's numbering stands.
What was measured:
[1] = biological target: the molecule itself; test: cross-linking
[2] = biological target: the molecule itself; test: SEC

B1: human galactose-1-phosphate uridylyltransferase p.F171S (enzyme, UniProt P07902 1-379, looked up)
chain: MSRSGTDPQQRQQASEADAAAATFRANDHQHIRYNPLQDEWVLVSAHRMKRPWQGQVEPQLLKTVPRHDPLNPLCPGAIRANGEVNPQYDSTFLFDNDFPALQPDAPSPGPSDHPLFQAKSARGVCKVMCFHPWSDVTLPLMSVPEIRAVVDAWASVTEELGAQYPWVQISENKGAMMGCSNPHPHCQVWASSFLPDIAQREERSQQAYKSQHGEPLLMEYSRQELLRKERLVLTSEHWLVLVPFWATWPYQTLLLPRRHVRRLPELTPAERDDLASIMKKLLTKYDNLFETSFPYSMGWHGAPTGSEAGANWNHWQLHAHYYPPLLRSATVRKFMVGYEMLAQAQRDLTPEQAAERLRALPEVHYHLGQKDRETATIA
- stoichiometry N [1]: 2

B2: human galactose-1-phosphate uridylyltransferase p.L74P (enzyme, UniProt P07902 1-379, looked up)
chain: B1 chain with L74P, S171F
- stoichiometry N [2]: 2

B3: human galactose-1-phosphate uridylyltransferase p.F194L (enzyme, UniProt P07902 1-379, looked up)
chain: B1 chain with S171F, F194L
- stoichiometry N [1]: 2

B4: human galactose-1-phosphate uridylyltransferase p.D28Y (enzyme, UniProt P07902 1-379, looked up)
chain: B1 chain with D28Y, S171F
- stoichiometry N [2]: 2

B5: human galactose-1-phosphate uridylyltransferase p.R333G (enzyme, UniProt P07902 1-379, looked up)
chain: B1 chain with S171F, R333G
- stoichiometry N [1]: 2
